Measurements from patent publication US20260055369A1 (H LEE MOFFITT CANCER CENTER AND RESEARCH INSTITUTE, published 2026).

Legend:
[1] = target: Notch1 on CHO-K1 N1-Gal4 fluorescent reporter cells (UniProt P46531 19-2555, limits assumed); assay: cell-based or functional assay
[2] = target: T1, hNotch2 (EGF6-13, residues 221-530), biotinylated (human, UniProt Q04721 221-530, Biotinylated in vitro by BirA at the C-terminal BAP-tag (tag not in the letters).); assay: SPR (Biacore T200), biotinylated Notch fragment on streptavidin chip, DLL4 protein (N-EGF5) in flow, 1:1 model
T1 construct: Immobilised on a streptavidin chip for SPR
T1 sequence: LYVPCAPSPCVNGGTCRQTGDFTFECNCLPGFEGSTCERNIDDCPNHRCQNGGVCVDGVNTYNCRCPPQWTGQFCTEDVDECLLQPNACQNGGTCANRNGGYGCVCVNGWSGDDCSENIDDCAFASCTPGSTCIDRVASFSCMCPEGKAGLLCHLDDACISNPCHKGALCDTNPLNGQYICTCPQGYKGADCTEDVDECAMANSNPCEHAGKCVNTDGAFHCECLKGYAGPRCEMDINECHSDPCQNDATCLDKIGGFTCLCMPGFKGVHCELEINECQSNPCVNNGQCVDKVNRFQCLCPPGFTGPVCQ
Protocol: (§1) The rapid dissociation of WT DLL4 precluded kinetic fitting of the binding data.
(§2) Equilibrium dissociation constants were determined by surface plasmon resonance using a Biacore T200 instrument (GE Healthcare). Approximately 100 resonance units (RU) of biotinylated Notch extracellular fragments (Notch1 (EGF6-13), Notch2 (EGF6-13), Notch3 (EGF5-12), Notch4 (7-12), and mouse Notch1 (EGF6-13)) were immobilized on individual flow cells at 5 μl/min using a streptavidin-coated sensor chip (Series S Sensor chip SA, GE Healthcare). Three-fold serial dilutions of recombinant DLL4 proteins (N-EGF5) starting at 50 μM (WT DLL4), 18 μM (DLL4.v2), and 6 μM (DLL4.v1 and Delta^MAX) were flowed over the chip at 25° C. in SPR buffer (20 mM HEPES pH 7.4, 150 mM NaCl, 1 mM calcium chloride, 0.1% BSA supplemented with 0.005% surfactant P20). Association (“on-rate”) and dissociation (“off-rate”) phases were performed at 10 μl/min for 120 seconds and 300 seconds, respectively. […] Data collection rate was performed at 10 Hz, and curves were reference-subtracted from a flow cell containing 100 RU of a negative control non-related protein (biotinylated mouse RNF43 PA domain). The maximum RU for each experiment was normalized to a value of 100% and plotted as a function of concentration using Prism 9 software (GraphPad). Steady-state binding and kinetic curves were fitted using the Biacore T200 evaluation software to a 1:1 Langmuir model to determine the KD values.

[3] = target: T2, hNotch3 (EGF5-12, residues 197-505), biotinylated (human, UniProt Q9UM47 197-505, Biotinylated in vitro by BirA at the C-terminal BAP-tag (tag not in the letters).); assay: as above
T2 construct: Immobilised on a streptavidin chip for SPR
T2 sequence: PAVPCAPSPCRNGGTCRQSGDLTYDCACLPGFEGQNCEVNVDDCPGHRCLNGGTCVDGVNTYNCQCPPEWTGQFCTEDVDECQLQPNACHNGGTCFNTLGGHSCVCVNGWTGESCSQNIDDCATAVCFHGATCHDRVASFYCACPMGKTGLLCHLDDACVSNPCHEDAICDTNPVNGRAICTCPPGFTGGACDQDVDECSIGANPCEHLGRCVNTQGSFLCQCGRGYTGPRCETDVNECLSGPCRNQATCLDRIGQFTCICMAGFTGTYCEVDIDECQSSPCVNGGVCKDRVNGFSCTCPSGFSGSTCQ
Protocol: as §1, §2

[4] = target: T3, hNotch4 (EGF7-12, residues 276-511), biotinylated (human, UniProt Q99466 276-511, Biotinylated in vitro by BirA at the C-terminal BAP-tag (tag not in the letters).); assay: as above
T3 construct: Immobilised on a streptavidin chip for SPR; also called Notch4 (7-12)
T3 sequence: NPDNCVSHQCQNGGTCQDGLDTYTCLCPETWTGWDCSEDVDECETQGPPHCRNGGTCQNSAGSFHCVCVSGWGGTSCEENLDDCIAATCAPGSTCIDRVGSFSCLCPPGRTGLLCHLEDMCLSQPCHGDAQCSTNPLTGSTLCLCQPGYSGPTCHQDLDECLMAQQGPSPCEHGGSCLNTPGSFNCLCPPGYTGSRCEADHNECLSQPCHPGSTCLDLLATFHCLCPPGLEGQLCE
Protocol: as §1, §2

[5] = target: T4, mouse Notch1 (EGF6-13, residues 221-526), biotinylated (mouse, UniProt Q01705 221-526, Biotinylated in vitro by BirA at the C-terminal BAP-tag (tag not in the letters).); assay: SPR (Biacore T200), biotinylated mNotch1 EGF6-13 on streptavidin chip, DLL4 protein (N-EGF5) in flow, 1:1 model
T4 construct: Immobilised on a streptavidin chip for SPR; also called mNotch1 EGF6-13; mNotch1 (6-13)
T4 sequence: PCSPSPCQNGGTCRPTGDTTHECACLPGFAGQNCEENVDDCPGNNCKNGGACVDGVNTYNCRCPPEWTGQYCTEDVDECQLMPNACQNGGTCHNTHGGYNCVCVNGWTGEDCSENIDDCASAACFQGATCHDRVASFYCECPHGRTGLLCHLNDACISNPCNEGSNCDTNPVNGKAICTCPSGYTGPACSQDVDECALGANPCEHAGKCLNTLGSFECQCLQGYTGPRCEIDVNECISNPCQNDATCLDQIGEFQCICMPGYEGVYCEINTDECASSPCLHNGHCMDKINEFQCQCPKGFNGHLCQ
Protocol: The binding affinity was measured between each DLL4 variant and the EGF6-13 region of murine Notch1 (mNotch1 EGF6-13) to test for cross-species reactivity (FIGS. 2B, 10, 11A). […] Lastly, the binding of Delta^MAX to full-length, cell surface-expressed Notch1 was assessed.
Equilibrium dissociation constants were determined by surface plasmon resonance using a Biacore T200 instrument (GE Healthcare). Approximately 100 resonance units (RU) of biotinylated Notch extracellular fragments (Notch1 (EGF6-13), Notch2 (EGF6-13), Notch3 (EGF5-12), Notch4 (7-12), and mouse Notch1 (EGF6-13)) were immobilized on individual flow cells at 5 μl/min using a streptavidin-coated sensor chip (Series S Sensor chip SA, GE Healthcare). Three-fold serial dilutions of recombinant DLL4 proteins (N-EGF5) starting at 50 μM (WT DLL4), 18 μM (DLL4.v2), and 6 μM (DLL4.v1 and Delta^MAX) were flowed over the chip at 25° C. in SPR buffer (20 mM HEPES pH 7.4, 150 mM NaCl, 1 mM calcium chloride, 0.1% BSA supplemented with 0.005% surfactant P20). Association (“on-rate”) and dissociation (“off-rate”) phases were performed at 10 μl/min for 120 seconds and 300 seconds, respectively. […] Data collection rate was performed at 10 Hz, and curves were reference-subtracted from a flow cell containing 100 RU of a negative control non-related protein (biotinylated mouse RNF43 PA domain). […]

Notch1 on CHO-K1 N1-Gal4 fluorescent reporter cells, sequence (P46531 19-2555 limits assumed): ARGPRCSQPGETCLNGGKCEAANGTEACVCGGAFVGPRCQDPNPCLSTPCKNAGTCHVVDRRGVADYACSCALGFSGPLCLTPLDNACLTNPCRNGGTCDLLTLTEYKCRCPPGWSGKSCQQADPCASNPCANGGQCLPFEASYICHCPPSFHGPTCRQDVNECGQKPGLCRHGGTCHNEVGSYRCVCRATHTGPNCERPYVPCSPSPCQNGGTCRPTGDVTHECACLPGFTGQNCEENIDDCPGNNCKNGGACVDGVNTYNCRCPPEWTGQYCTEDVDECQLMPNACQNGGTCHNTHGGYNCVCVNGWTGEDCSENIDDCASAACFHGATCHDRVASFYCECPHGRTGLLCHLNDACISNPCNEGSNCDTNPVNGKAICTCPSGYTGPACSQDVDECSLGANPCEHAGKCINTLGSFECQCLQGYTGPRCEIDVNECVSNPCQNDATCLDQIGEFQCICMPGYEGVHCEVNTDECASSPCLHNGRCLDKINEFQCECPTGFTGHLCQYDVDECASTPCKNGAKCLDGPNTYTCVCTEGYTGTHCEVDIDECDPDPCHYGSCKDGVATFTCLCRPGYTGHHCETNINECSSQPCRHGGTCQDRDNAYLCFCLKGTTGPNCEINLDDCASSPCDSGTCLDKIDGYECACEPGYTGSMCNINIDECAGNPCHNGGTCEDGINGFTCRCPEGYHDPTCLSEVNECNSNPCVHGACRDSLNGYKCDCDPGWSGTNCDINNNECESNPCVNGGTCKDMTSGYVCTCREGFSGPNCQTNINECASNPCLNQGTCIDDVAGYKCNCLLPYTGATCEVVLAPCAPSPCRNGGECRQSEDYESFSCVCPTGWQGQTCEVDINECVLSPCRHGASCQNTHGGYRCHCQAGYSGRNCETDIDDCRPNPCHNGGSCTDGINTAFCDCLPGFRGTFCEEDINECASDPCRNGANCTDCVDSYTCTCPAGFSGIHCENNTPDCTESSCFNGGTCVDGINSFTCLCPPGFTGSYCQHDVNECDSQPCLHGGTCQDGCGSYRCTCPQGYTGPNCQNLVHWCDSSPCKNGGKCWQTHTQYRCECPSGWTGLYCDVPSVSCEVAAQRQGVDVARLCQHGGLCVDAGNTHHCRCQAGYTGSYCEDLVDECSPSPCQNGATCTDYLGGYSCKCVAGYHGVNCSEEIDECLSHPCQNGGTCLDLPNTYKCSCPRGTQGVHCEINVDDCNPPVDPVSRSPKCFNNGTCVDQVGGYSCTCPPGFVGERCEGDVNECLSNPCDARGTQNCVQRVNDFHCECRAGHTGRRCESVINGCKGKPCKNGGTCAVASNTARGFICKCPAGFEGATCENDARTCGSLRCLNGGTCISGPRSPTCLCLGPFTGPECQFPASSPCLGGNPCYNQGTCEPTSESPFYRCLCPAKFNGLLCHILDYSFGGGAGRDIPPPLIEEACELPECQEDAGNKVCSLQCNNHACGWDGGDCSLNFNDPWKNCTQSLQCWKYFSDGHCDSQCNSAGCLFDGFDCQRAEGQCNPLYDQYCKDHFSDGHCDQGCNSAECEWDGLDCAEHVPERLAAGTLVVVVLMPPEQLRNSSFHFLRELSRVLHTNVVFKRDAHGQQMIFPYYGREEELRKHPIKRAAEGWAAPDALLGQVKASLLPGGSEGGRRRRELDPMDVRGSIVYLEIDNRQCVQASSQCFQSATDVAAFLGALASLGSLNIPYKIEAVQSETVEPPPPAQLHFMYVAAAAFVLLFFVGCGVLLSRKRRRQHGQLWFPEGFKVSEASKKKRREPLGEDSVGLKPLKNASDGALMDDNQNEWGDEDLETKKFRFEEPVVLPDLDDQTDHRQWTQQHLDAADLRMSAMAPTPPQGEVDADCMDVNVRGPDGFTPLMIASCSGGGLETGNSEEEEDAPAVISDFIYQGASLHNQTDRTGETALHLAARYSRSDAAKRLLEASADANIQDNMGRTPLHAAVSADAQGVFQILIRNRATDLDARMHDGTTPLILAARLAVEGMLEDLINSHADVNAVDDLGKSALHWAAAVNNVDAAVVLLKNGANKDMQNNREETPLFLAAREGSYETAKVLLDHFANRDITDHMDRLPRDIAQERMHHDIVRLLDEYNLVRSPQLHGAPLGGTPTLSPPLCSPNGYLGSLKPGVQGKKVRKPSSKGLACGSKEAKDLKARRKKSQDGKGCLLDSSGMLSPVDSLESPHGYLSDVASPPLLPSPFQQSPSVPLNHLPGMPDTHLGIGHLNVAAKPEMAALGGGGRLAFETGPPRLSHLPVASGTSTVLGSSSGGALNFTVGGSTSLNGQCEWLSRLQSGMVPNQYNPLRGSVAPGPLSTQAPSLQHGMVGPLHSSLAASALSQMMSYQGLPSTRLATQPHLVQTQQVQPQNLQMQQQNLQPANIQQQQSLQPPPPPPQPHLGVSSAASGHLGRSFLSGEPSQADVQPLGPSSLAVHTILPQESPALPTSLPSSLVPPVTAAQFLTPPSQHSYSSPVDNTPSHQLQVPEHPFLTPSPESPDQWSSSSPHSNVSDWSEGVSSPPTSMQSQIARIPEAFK

B1: Delta^MAX (N-EGF5), non-biotinylated (ligand)
chain: SSVFQLQLQEFINERGVLASGRPCEPGCRTFFRVCLKHFQAVVSPGPCTFGTVSTPVLGTNSFAVRDDSSGGGRNPLQLPLNFTWPGTFSLIIEAWHAPGDDLRPEALPPDALISKFAIQGSLAVGQNWLLDEQTSTLTRLRYSYRVICSDNYYGDNCSRLCKKRNDYFGHYVCQPDGNPSCLPGWTGEYCQQPICLSGCHEQNGYCSKPAECLCRPGWQGRLCNECIPHPGCRHGTCSTPWQCLCDEGWGGLYCDQDLNYCTHHSPCKNGATCRNSGPRSYTCTCRPGYTGVDCELELSECDSNPCRNGGSCKDQEDGYHCLCPPGYYGLHCEHSTLSCADSPCFNGGSCRERNQGANYACECPPNFTGSNCEHHHHHHHH
notes: also called DLL4^MAX; soluble Delta^MAX
Which “EC50 of Notch1 activation, fluorescent reporter cells, ligand non-specifically adsorbed to plates” value [1] does the source give for B1 here?
The value was 0.009 ng/mm^2.

And the “IC50 of inhibition of Notch1 activation on WT DLL4-coated plates (comparison with DAPT and BB-94)” value [1]?
The value was 1 nM.

And the “IC50 of inhibition of Notch1 reporter signalling in co-culture with HEK293T cells expressing WT DLL4” value [1]?
Its value is 400 nM.

And the “IC50 of inhibition of Notch1 reporter signalling on WT DLL4-coated plates” value [1]?
The value was 0.6 nM.

What about the “improvement in Notch activation efficiency against WT DLL4 (adsorbed ligand)” value [1] of the same binder?
The value was 250 fold.

And the Kd [2]?
Its Kd is 54 nM.

What about the Kd [3] of the same binder?
The Kd was 49 nM.

What about the Kd [4] of the same binder?
The Kd was 24 nM.

And the Kd [5]?
Its Kd is 25 nM.
